In general, Kd refers to a measure of binding affinity in units of concentration.

Holding throughout (assay): SPR
For orientation: SPR reads the build-up and loss of mass on a sensor chip optically.

Assay [1] addresses T1, recombinant human haptoglobin β subunit (human, UniProt P00738 162-406).
T1 sequence (looked up): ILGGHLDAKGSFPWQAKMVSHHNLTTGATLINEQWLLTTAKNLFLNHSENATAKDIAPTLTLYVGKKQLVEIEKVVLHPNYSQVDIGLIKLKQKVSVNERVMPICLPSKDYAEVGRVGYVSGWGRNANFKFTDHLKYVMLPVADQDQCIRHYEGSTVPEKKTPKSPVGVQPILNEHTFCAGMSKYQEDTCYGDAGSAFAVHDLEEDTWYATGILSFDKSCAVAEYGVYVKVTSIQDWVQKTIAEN

Assay [2] has as its target T2, native human haptoglobin β subunit (human, UniProt P00738 162-406).
T2 sequence (looked up): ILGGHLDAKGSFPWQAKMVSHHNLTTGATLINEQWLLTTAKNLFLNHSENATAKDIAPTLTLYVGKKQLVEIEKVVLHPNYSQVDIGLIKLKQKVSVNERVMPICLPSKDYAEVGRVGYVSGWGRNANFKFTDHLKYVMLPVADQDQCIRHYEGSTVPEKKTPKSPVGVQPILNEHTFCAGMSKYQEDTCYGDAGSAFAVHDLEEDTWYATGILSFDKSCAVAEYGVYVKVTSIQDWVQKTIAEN

The target of assay [3] is recombinant human CD163 protein (human, UniProt Q86VB7-1 42-1050).
recombinant human CD163 protein, sequence (Q86VB7 42-1050): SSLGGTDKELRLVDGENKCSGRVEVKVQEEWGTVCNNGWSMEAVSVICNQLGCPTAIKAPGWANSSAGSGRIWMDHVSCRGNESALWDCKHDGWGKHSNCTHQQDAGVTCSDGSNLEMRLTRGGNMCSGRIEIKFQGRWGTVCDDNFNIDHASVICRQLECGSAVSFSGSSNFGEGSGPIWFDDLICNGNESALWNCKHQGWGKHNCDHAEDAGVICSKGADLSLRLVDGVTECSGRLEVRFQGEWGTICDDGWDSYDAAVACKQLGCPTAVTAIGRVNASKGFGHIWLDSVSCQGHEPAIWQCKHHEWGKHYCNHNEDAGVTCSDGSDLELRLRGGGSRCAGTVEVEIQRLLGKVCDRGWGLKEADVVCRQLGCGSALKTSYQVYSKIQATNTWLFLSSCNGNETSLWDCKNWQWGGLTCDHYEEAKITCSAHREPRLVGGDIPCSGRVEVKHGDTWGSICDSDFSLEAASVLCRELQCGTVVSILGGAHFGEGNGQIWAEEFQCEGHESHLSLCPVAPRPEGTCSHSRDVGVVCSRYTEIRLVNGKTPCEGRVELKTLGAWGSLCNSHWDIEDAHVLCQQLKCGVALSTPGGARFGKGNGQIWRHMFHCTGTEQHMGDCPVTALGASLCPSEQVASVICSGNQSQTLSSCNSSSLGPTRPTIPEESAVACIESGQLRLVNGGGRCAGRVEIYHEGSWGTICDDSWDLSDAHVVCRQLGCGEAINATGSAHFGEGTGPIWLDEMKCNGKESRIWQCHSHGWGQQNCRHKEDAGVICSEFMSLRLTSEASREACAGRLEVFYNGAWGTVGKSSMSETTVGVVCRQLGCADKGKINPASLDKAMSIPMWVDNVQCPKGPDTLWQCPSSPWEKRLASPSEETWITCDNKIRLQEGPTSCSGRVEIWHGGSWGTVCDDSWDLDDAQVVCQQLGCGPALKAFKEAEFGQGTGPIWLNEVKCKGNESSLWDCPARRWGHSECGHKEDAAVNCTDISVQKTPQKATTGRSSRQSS

B1: recombinant disulfide HMGB1 (natural protein, UniProt P09429 1-215, looked up)
chain: MGKGDPKKPRGKMSSYAFFVQTCREEHKKKHPDASVNFSEFSKKCSERWKTMSAKEKGKFEDMAKADKARYEREMKTYIPPKGETKKKFKDPNAPKRPPSAFFLFCSEYRPKIKGEHPGLSIGDVAKKLGEMWNNTAADDKQPYEKKAAKLKEKYEKDIAAYRAKGKPDAAKKGVVKAEKSKKKKEEEEDEEDEEDEEEEEDEEDEDEEEDDDDE
modifications: disulfide redox form (cysteines not named)
Regarding B1, the Kd in assay [1] was found to be 29 nM; in assay [2], 30 nM.

B2: HMGB1-haptoglobin β complexes (1:1 molar ratio) (complex)
chain 1: MGKGDPKKPRGKMSSYAFFVQTCREEHKKKHPDASVNFSEFSKKCSERWKTMSAKEKGKFEDMAKADKARYEREMKTYIPPKGETKKKFKDPNAPKRPPSAFFLFCSEYRPKIKGEHPGLSIGDVAKKLGEMWNNTAADDKQPYEKKAAKLKEKYEKDIAAYRAKGKPDAAKKGVVKAEKSKKKKEEEEDEEDEEDEEEEEDEEDEDEEEDDDDE
chain 2: ILGGHLDAKGSFPWQAKMVSHHNLTTGATLINEQWLLTTAKNLFLNHSENATAKDIAPTLTLYVGKKQLVEIEKVVLHPNYSQVDIGLIKLKQKVSVNERVMPICLPSKDYAEVGRVGYVSGWGRNANFKFTDHLKYVMLPVADQDQCIRHYEGSTVPEKKTPKSPVGVQPILNEHTFCAGMSKYQEDTCYGDAGSAFAVHDLEEDTWYATGILSFDKSCAVAEYGVYVKVTSIQDWVQKTIAEN
As to B2, the Kd in assay [3] amounted to 70 nM.

The values above are taken from publication PMC5477782 (Journal of internal medicine, 2017).
